Target: SARS-CoV-2 viral particles (spike protein as shown on the whole virus) (SARS-CoV-2)

## recombinant griffithsin lectin protein (rGRFT) (from UniProt P84801 1-121) (natural protein)
  IC50 of rGRFT on SARS-CoV-2 (Ank2, Wuhan like) infection of Vero E6 cells, cytopathic effect reading; rGRFT from 6 uM to 15.4 pM mixed with infectious particles: 0.0332 µM

— publication PMC9017247
